Experimental findings from the supplement of paper PMC6755084 are described below.

B1: F1*; the commonest letter at each place (parent)
chain: GAGACCGCAACTGAAAAGTTGTTATCACTTGTCGTAAGACACTTTGGATGGGTTGAAGTTCTGCACGTAGAAGCAAAAGGC

Variants of B1 are the subject of the data set. Nature of the data set: fraction ligated after 30 min (ligated reads / total reads); higher = more ligase activity. Particulars: with F1*sub RNA substrate (template-directed ligation), 42 °C. As to the method: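 Chip-synthesised pool of F1* ligase ribozyme variants (all single and double substitutions, single, double and triple deletions in the catalytic core and GAA bulge, plus designed variants) was transcribed with T7 and reacted as a pool with excess substrate F1*sub for 30 min at 42 C in 50 mM EPPS pH 8.5, 25 mM MgCl2. Ligated and unligated bands were separated by PAGE, barcoded by RT and deep sequenced; fraction ligated = ligated reads / total reads per variant, relative activity = FL / FL of wild type (0.826). Sequences are the DNA template of the ribozyme.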
With GAGACCGCAACTGAAAAGTTGTTACCACTTGTCGTAAGACTCTTTGGATGGGTTGAAGTTCTGCACGTAGAAGCAAAAGGC, the fraction ligated was found to be 0.82. For GAGACCGCAACTGAAAAGTTGTTACCACTTGTCGTAAGACCCTTTGGATGGGTTGAAGTTCTGCACGTAGAAGCAAAAGGC, the fraction ligated was found to be 0.517. Regarding GAGACCGCAACTGAAAAGTTGTTACCACTTGTCGTAAGACGCTTTGGATGGGTTGAAGTTCTGCACGTAGAAGCAAAAGGC, the fraction ligated is 0.757.

In the case of GAGACCGCAACTGAAAAGTTGTTACCACTTCTCGTAAGACACTTTGGATGGGTTGAAGTTCTGCACGTAGAAGCAAAAGGC, the fraction ligated came out at 0.53. GAGACCGCAACTGAAAAGTTGTTACCACTTTTCGTAAGACACTTTGGATGGGTTGAAGTTCTGCACGTAGAAGCAAAAGGC: the fraction ligated is 0.546.

For GAGACCGCAACTGAAAAGTTGTTACCACTTATCGTAAGACACTTTGGATGGGTTGAAGTTCTGCACGTAGAAGCAAAAGGC, the fraction ligated came to 0.742. Turning to GAGACCGCAACTGAAAAGTTGTTACCACTTGTCGTAAGACACTTTCGATGGGTTGAAGTTCTGCACGTAGAAGCAAAAGGC, the fraction ligated turned out to be 0.474. In the case of GAGACCGCAACTGAAAAGTTGTTACCACTTGTCGTAAGACACTTTAGATGGGTTGAAGTTCTGCACGTAGAAGCAAAAGGC it was 0.71; in that of GAGACCGCAACTGAAAAGTTGTTACCACTTGTCGTAAGACACTTTTGATGGGTTGAAGTTCTGCACGTAGAAGCAAAAGGC, 0.396. As for GAGACCGCAACTGAAAAGTTGTTACCACTTGACGTAAGACACTTTGGATGGGTTGAAGTTCTGCACGTAGAAGCAAAAGGC, the fraction ligated is 0.745. Regarding GAGACCGCAACTGAAAAGTTGTTACCACTTGCCGTAAGACACTTTGGATGGGTTGAAGTTCTGCACGTAGAAGCAAAAGGC, the fraction ligated came to 0.762. In the case of GAGACCGCAACTGAAAAGTTGTTACCACTTGGCGTAAGACACTTTGGATGGGTTGAAGTTCTGCACGTAGAAGCAAAAGGC it was 0.707. In the case of GAGACCGCAACTGAAAAGTTGTTACCACCTGTCGTAAGACACTTTGGATGGGTTGAAGTTCTGCACGTAGAAGCAAAAGGC it was 0.781; in that of GAGACCGCAACTGAAAAGTTGTTACCACATGTCGTAAGACACTTTGGATGGGTTGAAGTTCTGCACGTAGAAGCAAAAGGC, 0.753; in that of GAGACCGCAACTGAAAAGTTGTTACCACGTGTCGTAAGACACTTTGGATGGGTTGAAGTTCTGCACGTAGAAGCAAAAGGC, 0.783.

Consider GAGACCGCAACTGAAAAGTTGTTACCACTTGTCGTAAGACAATTTGGATGGGTTGAAGTTCTGCACGTAGAAGCAAAAGGC, for which the fraction ligated came to 0.776. Under GAGACCGCAACTGAAAAGTTGTTACCACTTGTCGTAAGACAGTTTGGATGGGTTGAAGTTCTGCACGTAGAAGCAAAAGGC stands 0.769.

In the case of GAGACCGCAACTGAAAAGTTGTTACCACTTGTCGTAAGACATTTTGGATGGGTTGAAGTTCTGCACGTAGAAGCAAAAGGC, the fraction ligated is 0.804. Under GAGACCGCAACTGAAAAGTTGTTACCACTTGTCGTAAGACACTTTGGATGGGTTGTAGTTCTGCACGTAGAAGCAAAAGGC stands 0.107; under GAGACCGCAACTGAAAAGTTGTTACCACTTGTCGTAAGACACTTTGGATGGGTTGCAGTTCTGCACGTAGAAGCAAAAGGC, 0.0931. Take GAGACCGCAACTGAAAAGTTGTTACCACTTGTCGTAAGACACTTTGGATGGGTTGGAGTTCTGCACGTAGAAGCAAAAGGC: the fraction ligated came out at 0.0517. Under GAGACCGCAACTGAAAAGTTGTTACCACTTGTCGTAAGACACTTTGGCTGGGTTGAAGTTCTGCACGTAGAAGCAAAAGGC stands 0.686; under GAGACCGCAACTGAAAAGTTGTTACCACTTGTCGTAAGACACTTTGGGTGGGTTGAAGTTCTGCACGTAGAAGCAAAAGGC, 0.794; under GAGACCGCAACTGAAAAGTTGTTACCACTTGTCGTAAGACACTTTGGTTGGGTTGAAGTTCTGCACGTAGAAGCAAAAGGC, 0.815. Take GAGACCGCAACTGAAAAGTTGTTACCACTTGTCGTAAGACACTTTGAATGGGTTGAAGTTCTGCACGTAGAAGCAAAAGGC: the fraction ligated is 0.734. On to GAGACCGCAACTGAAAAGTTGTTACCACTTGTCGTAAGACACTTTGCATGGGTTGAAGTTCTGCACGTAGAAGCAAAAGGC, for which the fraction ligated was determined as 0.0468.

GAGACCGCAACTGAAAAGTTGTTACCACTTGTCGTAAGACACTTTGTATGGGTTGAAGTTCTGCACGTAGAAGCAAAAGGC: the fraction ligated is 0.208. Under GAGACCGCAACTGAAAAGTTGTTACAACTTGTCGTAAGACACTTTGGATGGGTTGAAGTTCTGCACGTAGAAGCAAAAGGC stands 0.0548. Turning to GAGACCGCAACTGAAAAGTTGTTACGACTTGTCGTAAGACACTTTGGATGGGTTGAAGTTCTGCACGTAGAAGCAAAAGGC, the fraction ligated was found to be 0.0807. Under GAGACCGCAACTGAAAAGTTGTTACTACTTGTCGTAAGACACTTTGGATGGGTTGAAGTTCTGCACGTAGAAGCAAAAGGC stands 0.813; under GAGACCGCAACTGAAAAGTTGTTACCACTTGTCGTAAGACACTGTGGATGGGTTGAAGTTCTGCACGTAGAAGCAAAAGGC, 0.0249. As for GAGACCGCAACTGAAAAGTTGTTACCACTTGTCGTAAGACACTCTGGATGGGTTGAAGTTCTGCACGTAGAAGCAAAAGGC, the fraction ligated came to 0.765.

On to GAGACCGCAACTGAAAAGTTGTTACCACTTGTCGTAAGACACTATGGATGGGTTGAAGTTCTGCACGTAGAAGCAAAAGGC, for which the fraction ligated stood at 0.788.

For the variant GAGACCGCAACTGAAAAGTTGTTACCACTTGTCGTAAGATACTTTGGATGGGTTGAAGTTCTGCACGTAGAAGCAAAAGGC, the fraction ligated stood at 0.819. As to GAGACCGCAACTGAAAAGTTGTTACCACTTGTCGTAAGAGACTTTGGATGGGTTGAAGTTCTGCACGTAGAAGCAAAAGGC, the fraction ligated is 0.378. Under GAGACCGCAACTGAAAAGTTGTTACCACTTGTCGTAAGAAACTTTGGATGGGTTGAAGTTCTGCACGTAGAAGCAAAAGGC stands 0.524; under GAGACCGCAACTGAAAAGTTGTTACCACTTGTCGTAAGACACTTAGGATGGGTTGAAGTTCTGCACGTAGAAGCAAAAGGC, 0.295; under GAGACCGCAACTGAAAAGTTGTTACCACTTGTCGTAAGACACTTTGGATGGGTTAAAGTTCTGCACGTAGAAGCAAAAGGC, 0.784. As to GAGACCGCAACTGAAAAGTTGTTACCACTTGTCGTAAGACACTTTGGATGGGTTCAAGTTCTGCACGTAGAAGCAAAAGGC, the fraction ligated came out at 0.424.

On to GAGACCGCAACTGAAAAGTTGTTACCACTTGTCGTAAGACACTTTGGATGGGTTTAAGTTCTGCACGTAGAAGCAAAAGGC, for which the fraction ligated came out at 0.174. In the case of GAGACCGCAACTGAAAAGTTGTTACCACTTGTCGTAAGACACTTTGGATGGGTTGACGTTCTGCACGTAGAAGCAAAAGGC it was 0.563. Under GAGACCGCAACTGAAAAGTTGTTACCACTTGTCGTAAGACACTTTGGATGGGTTGAGGTTCTGCACGTAGAAGCAAAAGGC stands 0.711. Under GAGACCGCAACTGAAAAGTTGTTACCACTTGTCGTAAGACACTTTGGATGGGTTGATGTTCTGCACGTAGAAGCAAAAGGC stands 0.682; under GAGACCGCAACTGAAAAGTTGTTACCACTTGTCTTAAGACACTTTGGATGGGTTGAAGTTCTGCACGTAGAAGCAAAAGGC, 0.786. In the case of GAGACCGCAACTGAAAAGTTGTTACCACTTGTCCTAAGACACTTTGGATGGGTTGAAGTTCTGCACGTAGAAGCAAAAGGC, the fraction ligated is 0.795.

For the variant GAGACCGCAACTGAAAAGTTGTTACCACTTGTCATAAGACACTTTGGATGGGTTGAAGTTCTGCACGTAGAAGCAAAAGGC, the fraction ligated came to 0.799. Under GAGACCGCAACTGAAAAGTTGTTACCACTTGTTGTAAGACACTTTGGATGGGTTGAAGTTCTGCACGTAGAAGCAAAAGGC stands 0.786. As for GAGACCGCAACTGAAAAGTTGTTACCACTTGTAGTAAGACACTTTGGATGGGTTGAAGTTCTGCACGTAGAAGCAAAAGGC, the fraction ligated came out at 0.77.

Regarding GAGACCGCAACTGAAAAGTTGTTACCACTTGTGGTAAGACACTTTGGATGGGTTGAAGTTCTGCACGTAGAAGCAAAAGGC, the fraction ligated stood at 0.144.

Regarding GAGACCGCAACTGAAAAGTTGTTACCACTTGTCGTAAGACACCTTGGATGGGTTGAAGTTCTGCACGTAGAAGCAAAAGGC, the fraction ligated came out at 0.731. In the case of GAGACCGCAACTGAAAAGTTGTTACCACTTGTCGTAAGACACGTTGGATGGGTTGAAGTTCTGCACGTAGAAGCAAAAGGC it was 0.8. Turning to GAGACCGCAACTGAAAAGTTGTTACCACTTGTCGTAAGACACATTGGATGGGTTGAAGTTCTGCACGTAGAAGCAAAAGGC, the fraction ligated came out at 0.655. Take GAGACCGCAACTGAAAAGTTGTTACCACTTGTCGCAAGACACTTTGGATGGGTTGAAGTTCTGCACGTAGAAGCAAAAGGC: the fraction ligated worked out at 0.771.

As for GAGACCGCAACTGAAAAGTTGTTACCACTTGTCGGAAGACACTTTGGATGGGTTGAAGTTCTGCACGTAGAAGCAAAAGGC, the fraction ligated came to 0.801. For GAGACCGCAACTGAAAAGTTGTTACCACTTGTCGAAAGACACTTTGGATGGGTTGAAGTTCTGCACGTAGAAGCAAAAGGC, the fraction ligated is 0.781.

For GAGACCGCAACTGAAAAGTTGTTACCAGTTGTCGTAAGACACTTTGGATGGGTTGAAGTTCTGCACGTAGAAGCAAAAGGC, the fraction ligated stood at 0.78. In the case of GAGACCGCAACTGAAAAGTTGTTACCAATTGTCGTAAGACACTTTGGATGGGTTGAAGTTCTGCACGTAGAAGCAAAAGGC it was 0.684; in that of GAGACCGCAACTGAAAAGTTGTTACCATTTGTCGTAAGACACTTTGGATGGGTTGAAGTTCTGCACGTAGAAGCAAAAGGC, 0.803. For GAGACCGCAACTGAAAAGTTGTTACCACTTGTCGTAAGTCACTTTGGATGGGTTGAAGTTCTGCACGTAGAAGCAAAAGGC, the fraction ligated is 0.766. GAGACCGCAACTGAAAAGTTGTTACCACTTGTCGTAAGACACTTTGGATCGGTTGAAGTTCTGCACGTAGAAGCAAAAGGC: the fraction ligated turned out to be 0.379. In the case of GAGACCGCAACTGAAAAGTTGTTACCACTTGTCGTAAGACACTTTGGATAGGTTGAAGTTCTGCACGTAGAAGCAAAAGGC it was 0.326; in that of GAGACCGCAACTGAAAAGTTGTTACCACTTGTCGTAAGACACTTTGGATTGGTTGAAGTTCTGCACGTAGAAGCAAAAGGC, 0.639. In the case of GAGACCGCAACTGAAAAGTTGTTACCACTCGTCGTAAGACACTTTGGATGGGTTGAAGTTCTGCACGTAGAAGCAAAAGGC it was 0.751; in that of GAGACCGCAACTGAAAAGTTGTTACCACTGGTCGTAAGACACTTTGGATGGGTTGAAGTTCTGCACGTAGAAGCAAAAGGC, 0.162. Turning to GAGACCGCAACTGAAAAGTTGTTACCACTAGTCGTAAGACACTTTGGATGGGTTGAAGTTCTGCACGTAGAAGCAAAAGGC, the fraction ligated was 0.75. In the case of GAGACCGCAACTGAAAAGTTGTTACCACTTGTCGTAATACACTTTGGATGGGTTGAAGTTCTGCACGTAGAAGCAAAAGGC it was 0.747.

As for GAGACCGCAACTGAAAAGTTGTTACCACTTGTCGTAACACACTTTGGATGGGTTGAAGTTCTGCACGTAGAAGCAAAAGGC, the fraction ligated is 0.0674. Regarding GAGACCGCAACTGAAAAGTTGTTACCACTTGTCGTAAAACACTTTGGATGGGTTGAAGTTCTGCACGTAGAAGCAAAAGGC, the fraction ligated came to 0.803.
